From PMC4201484 come the findings set out here.

Assay [1] addresses β-TrCP1 (UniProt Q9Y297). Nature of the assay: co-IP, anti-HA IP, anti-Flag blot. The settings on record: reference: wild type; sites S525.
The target in assay [2] is β-TrCP2 (UniProt Q9UKB1). Nature of the assay: co-IP, anti-HA IP, anti-Flag blot. As to conditions: reference: wild type; sites S525.

On to Rap1GAP (from UniProt P47736) S525A, for which the “binding against the reference” value in assay [1] and in assay [2] was “weaker” throughout.
